Measurements from patent US20240400657A1 (MorphoSys, published 2024).
Where a chain is given by its changes, count along the chain named.

B1: MAB #2 (antibody, human IgG1, lambda)
heavy: EVQLVESGGGLVKPGGSLRLSCAASGFTFSSYAMHWVRQAPGKGLEWVGRIKSVAQGGTTDYAAHVKGRFTISRDDSKNTLYLQMNSLKTEDTAVYYCARVSHSTFDVWGQGTLVTVSSASTKGPSVFPLAPSSKSTSGGTAALGCLVKDYFPEPVTVSWNSGALTSGVHTFPAVLQSSGLYSLSSVVTVPSSSLGTQTYICNVNHKPSNTKVDKRVEPKSCDKTHTCPPCPAPEAEGAPSVFLFPPKPKDTLMISRTPEVTCVVVDVSHEDPEVKFNWYVDGVEVHNAKTKPREEQYNSTYRVVSVLTVLHQDWLNGKEYKCKVSNKALPSSIEKTISKAKGQPREPQVYTLPPSREEMTKNQVSLTCLVKGFYPSDIAVEWESNGQPENNYKTTPPVLDSDGSFFLYSKLTVDKSRWQQGNVFSCSVMHEALHNHYTQKSLSLSPGK
light: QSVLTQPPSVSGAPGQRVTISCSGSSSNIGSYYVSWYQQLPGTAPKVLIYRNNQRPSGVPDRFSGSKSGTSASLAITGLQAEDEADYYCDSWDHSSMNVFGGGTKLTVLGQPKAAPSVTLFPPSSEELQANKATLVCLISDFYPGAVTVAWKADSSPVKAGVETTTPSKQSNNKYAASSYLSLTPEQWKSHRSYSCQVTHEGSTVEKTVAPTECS
notes: lambda 1 light chain
B2: MAB #1 (antibody, human IgG1, lambda)
heavy: B1 heavy with V54K, H103F
light: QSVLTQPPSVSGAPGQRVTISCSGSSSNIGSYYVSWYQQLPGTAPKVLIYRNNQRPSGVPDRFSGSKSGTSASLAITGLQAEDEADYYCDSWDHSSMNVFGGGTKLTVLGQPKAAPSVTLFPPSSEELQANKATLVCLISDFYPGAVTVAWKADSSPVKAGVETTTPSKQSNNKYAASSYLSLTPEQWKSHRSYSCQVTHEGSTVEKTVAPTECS
notes: lambda 1 light chain, VH3-15 framework

Columns and labels:
rat transferrin = rat transferrin (rat, UniProt P12346 20-698); assay: Octet based binding assay
cynomolgus transferrin = cynomolgus transferrin (cynomolgus, UniProt A0A2K5UXZ0 20-695); assay: Octet based binding assay
Human FcγRI (1-279)_HIS6 = biological target: T1, Human FcγRI (1-279)_HIS6 (human, UniProt P12314 16-280); assay: BLI (Octet), IgG captured on Protein A sensors, FcγR titrated
T1 construct: Extracellular region with C-terminal 6xHis tag; UniProt P12314 printed
Method: (§1) 2.0 nm of IgGs diluted in Octet assay buffer (PBS, 0.05% (v/v) Tween-20, 0.1% (w/v) BSA) were captured on Protein A sensors (FortéBIO, Pall Life Sciences). Kinetic measurements were performed using 7 concentrations of Fc gamma receptors (2n serial dilution) in assay buffer. […] All sensorgrams were fitted using Data Analysis Software 10.0, (FortéBIO, Pall Life Sciences) to determine kₒₙ and koff rate constants, which were used to calculate KD. The raw data was fitted with a 1:1 binding model, with parameter Rₘₐₓ set to local.

[1] = biological target: T2, Human FcγRIIa (1-209)-(131H)-HIS6 (human, UniProt P12318 34-209); assay: as above
T2 construct: Extracellular region with C-terminal 6xHis tag; UniProt P12318 printed
T2 sequence: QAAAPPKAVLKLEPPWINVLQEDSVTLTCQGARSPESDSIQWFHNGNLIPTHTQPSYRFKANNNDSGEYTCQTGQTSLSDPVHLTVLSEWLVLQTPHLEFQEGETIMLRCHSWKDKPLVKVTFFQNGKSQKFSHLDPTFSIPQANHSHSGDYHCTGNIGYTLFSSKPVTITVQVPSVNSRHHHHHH
Method: as §1

[2] = biological target: T3, Human FcγRIIa (1-209)-(131R)-HIS6 (human, UniProt P12318 34-209); assay: as above
T3 construct: Extracellular region with C-terminal 6xHis tag; UniProt P12318 printed
T3 chain: T2 sequence with H134R
Method: as §1

[3] = biological target: T4, Human FcγRIIIa (1-193)-(158F)-HIS6 (human, UniProt P08637 17-193); assay: as above
T4 construct: Extracellular region with C-terminal 6xHis tag; UniProt P08637 printed
Method: as §1

[4] = biological target: T5, Human FcγRIIIa (1-193)-(158V)-HIS6 (human, UniProt P08637 17-193); assay: as above
T5 construct: Extracellular region with C-terminal 6xHis tag; UniProt P08637 printed
Method: as §1

[5] = biological target: T6, Human FcγRIIB (1-202)-HIS6 (human, UniProt P31994 43-217); assay: as above
T6 construct: Extracellular region with C-terminal 6xHis tag; UniProt P31994 printed
T6 sequence: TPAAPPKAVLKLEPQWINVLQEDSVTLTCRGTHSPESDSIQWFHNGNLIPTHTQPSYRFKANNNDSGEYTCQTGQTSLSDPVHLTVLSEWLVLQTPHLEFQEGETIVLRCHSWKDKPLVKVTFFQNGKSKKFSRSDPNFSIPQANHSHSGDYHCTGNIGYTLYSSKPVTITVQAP
Method: as §1

Protein A = biological target: T7, Protein A; assay: Protein Panel Profiling (3P), MSD ECL, coated antigen, IgG 100 nM
T7 construct: control of the 3P panel
Method: (§2) 32 different proteins and controls were coated on two 384-well MSD standard plates at a concentration of 1.0 μg/mL at 4° C. over night. The coating solution was discarded and plates were blocked with 50 μL 3% (w/v) BSA in PBS for one hour at RT on a microtiter plate shaker (˜500 rpm) followed by three washing steps with 50 μL washing buffer (PBS with 0.05% (v/v) Tween 20). IgG samples were diluted to 100 nM and 10 nM in assay buffer (PBS with 0.5% (w/v) BSA, 0.05% (v/v) Tween 20). As controls, isotype control antibody MOR03207 (IgG1f_AEASS) and assay buffer were used. Samples and controls were added at 30 μL/well and incubated for three hours at RT on a microtiter plate shaker. The plates were washed three times and 30 μL detection antibody (ECL-labeled anti-human Fab) were added per well and incubated for one hour on a microtiter plate shaker (˜500 rpm). After washing the MSD plate and adding 35 μL/well MSD Read Buffer T with surfactant, electro-chemiluminescence signals were detected using a SECTOR® Imager S600 instrument (Meso Scale Diagnostics).
(§3) For evaluation, binding signals of the antibody sample to a certain protein were divided by the respective binding signals of the reference antibody MOR03207 resulting in a binding ratio (BR). The cumulative binding ratio (CBR) of all proteins except the controls (25 in total) was then calculated: CBR up to 150 indicates an IgG without detectable unspecific binding. Values above 150 indicates an IgG with increased unspecific binding compared to the reference antibody MOR03207.

Fc (h) = biological target: T8, Fc (h); assay: as above
T8 construct: '(h)' on the sheet read as human
Method: as §2, §3

Trypsin inhibitor = assay: as above
Method: as §2, §3

Lectin = assay: as above
Method: as §2, §3

Ovalbumin = assay: as above
Method: as §2, §3

Trypsinogen = assay: as above
Method: as §2, §3

RNase B = assay: as above
Method: as §2, §3

Serum albumin (h) = biological target: T9, Serum albumin (h) (human); assay: as above
T9 construct: '(h)' on the sheet read as human
Method: as §2, §3

Antitrypsin = assay: as above
Method: as §2, §3

[6] = biological target: T10, Cell surface rec. 1_Lys (h); assay: as above
T10 construct: identity not disclosed
Method: as §2, §3

[7] = biological target: T11, Cell surface rec. 2_Fc (h); assay: as above
T11 construct: identity not disclosed
Method: as §2, §3

bovine transferrin = bovine transferrin (bovine, UniProt Q29443 20-704); assay: as above
Method: as §2, §3

[8] = biological target: T12, human C5aR_NT-bio peptide (human, biotin tag (position not given)); assay: as above
T12 construct: Chemically synthesized linear peptide (Genscript); also called human C5aR N-terminal peptide; human C5aR peptide
T12 peptide: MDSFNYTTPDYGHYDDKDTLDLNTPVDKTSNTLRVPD

Human C1q = biological target: T13, Human C1q (human, UniProt P02745 23-245; P02746 28-253; P02747 29-245); assay: BLI (Octet), IgG captured via anti-hu Fab CH1 kappa/lambda on SA sensors, C1q titrated
T13 construct: mature; Plasma-derived complex; also called C1q protein; huC1q
From the text: 2.0 nm of IgGs diluted in Octet® buffer were captured onto anti-hu Fab CH1 kappa/lambda (BAC) immobilised onto streptavidin (SA) sensors (FortéBIO, Pall Life Sciences). […] All sensorgrams were fitted using Data Analysis Software 9 (FortéBIO, Pall Life Sciences) to determine the apparent affinity. The data was fitted with a steady state model.

[9] = biological target: T12, human C5aR_NT-bio peptide; assay: SPR (Biacore T200), IgG captured on anti-human-Fc, peptide as analyte, 1:1 fit, monovalent
[10] = biological target: T12, human C5aR_NT-bio peptide; assay: BLI (Octet HTX), biotinylated peptide on SA sensors, IgG as analyte, 1:1 fit, apparent (bivalent)

T5 sequence (P08637 other isoform, or with tags, fused parts or gaps): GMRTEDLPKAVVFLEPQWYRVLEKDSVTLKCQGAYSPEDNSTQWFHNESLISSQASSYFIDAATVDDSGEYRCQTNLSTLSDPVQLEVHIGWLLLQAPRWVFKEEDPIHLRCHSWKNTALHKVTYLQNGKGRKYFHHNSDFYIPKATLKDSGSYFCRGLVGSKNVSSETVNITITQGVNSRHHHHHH
T13 sequence (P02745 23-245, chain 1 of 3): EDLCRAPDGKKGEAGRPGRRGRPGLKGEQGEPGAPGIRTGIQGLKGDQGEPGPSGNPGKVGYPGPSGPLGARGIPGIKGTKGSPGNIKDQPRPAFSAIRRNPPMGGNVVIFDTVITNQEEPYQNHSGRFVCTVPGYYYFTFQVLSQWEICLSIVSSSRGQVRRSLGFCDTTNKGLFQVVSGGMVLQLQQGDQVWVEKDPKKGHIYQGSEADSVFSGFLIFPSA
T13 sequence (P02746 28-253, chain 2 of 3): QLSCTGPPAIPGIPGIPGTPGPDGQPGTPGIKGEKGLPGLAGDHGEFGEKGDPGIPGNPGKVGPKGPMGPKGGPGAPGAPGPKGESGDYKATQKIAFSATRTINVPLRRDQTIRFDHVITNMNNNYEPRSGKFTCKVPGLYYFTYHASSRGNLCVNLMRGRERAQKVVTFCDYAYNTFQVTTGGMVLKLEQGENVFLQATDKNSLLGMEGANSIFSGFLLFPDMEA
T13 sequence (P02747 29-245, chain 3 of 3): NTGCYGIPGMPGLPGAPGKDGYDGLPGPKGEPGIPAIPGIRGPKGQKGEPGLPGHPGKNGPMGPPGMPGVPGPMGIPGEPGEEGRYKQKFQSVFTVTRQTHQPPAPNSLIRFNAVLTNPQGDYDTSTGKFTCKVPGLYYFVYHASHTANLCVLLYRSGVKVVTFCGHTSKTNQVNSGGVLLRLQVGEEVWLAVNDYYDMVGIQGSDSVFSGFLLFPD
T1 sequence (P12314 other isoform, or with tags, fused parts or gaps): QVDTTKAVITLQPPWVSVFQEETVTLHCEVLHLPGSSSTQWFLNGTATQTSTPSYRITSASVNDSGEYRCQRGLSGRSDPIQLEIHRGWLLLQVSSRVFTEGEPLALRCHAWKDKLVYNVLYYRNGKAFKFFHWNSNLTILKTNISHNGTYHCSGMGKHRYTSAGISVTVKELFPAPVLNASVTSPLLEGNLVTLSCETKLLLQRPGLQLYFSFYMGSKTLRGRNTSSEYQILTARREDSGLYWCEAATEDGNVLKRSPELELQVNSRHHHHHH
Sequence of rat transferrin (P12346 20-698 limits assumed): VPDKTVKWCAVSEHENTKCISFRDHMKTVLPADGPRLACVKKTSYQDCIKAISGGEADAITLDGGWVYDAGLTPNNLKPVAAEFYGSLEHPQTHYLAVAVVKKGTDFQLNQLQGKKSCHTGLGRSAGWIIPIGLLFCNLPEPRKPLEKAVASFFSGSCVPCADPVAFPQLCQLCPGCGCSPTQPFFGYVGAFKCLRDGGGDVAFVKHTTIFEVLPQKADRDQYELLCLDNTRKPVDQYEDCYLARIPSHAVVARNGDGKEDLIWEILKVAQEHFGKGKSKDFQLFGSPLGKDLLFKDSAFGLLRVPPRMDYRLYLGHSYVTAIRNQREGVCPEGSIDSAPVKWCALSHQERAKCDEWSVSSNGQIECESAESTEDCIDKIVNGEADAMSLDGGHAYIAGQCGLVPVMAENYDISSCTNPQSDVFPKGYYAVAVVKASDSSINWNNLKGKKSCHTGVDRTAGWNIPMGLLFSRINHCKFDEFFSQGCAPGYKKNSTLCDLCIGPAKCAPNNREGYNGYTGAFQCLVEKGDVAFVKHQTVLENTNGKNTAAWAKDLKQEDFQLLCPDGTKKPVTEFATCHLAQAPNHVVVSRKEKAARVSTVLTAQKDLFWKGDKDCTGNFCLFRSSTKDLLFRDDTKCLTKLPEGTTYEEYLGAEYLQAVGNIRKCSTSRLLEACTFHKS
T9 sequence (P02768 25-609): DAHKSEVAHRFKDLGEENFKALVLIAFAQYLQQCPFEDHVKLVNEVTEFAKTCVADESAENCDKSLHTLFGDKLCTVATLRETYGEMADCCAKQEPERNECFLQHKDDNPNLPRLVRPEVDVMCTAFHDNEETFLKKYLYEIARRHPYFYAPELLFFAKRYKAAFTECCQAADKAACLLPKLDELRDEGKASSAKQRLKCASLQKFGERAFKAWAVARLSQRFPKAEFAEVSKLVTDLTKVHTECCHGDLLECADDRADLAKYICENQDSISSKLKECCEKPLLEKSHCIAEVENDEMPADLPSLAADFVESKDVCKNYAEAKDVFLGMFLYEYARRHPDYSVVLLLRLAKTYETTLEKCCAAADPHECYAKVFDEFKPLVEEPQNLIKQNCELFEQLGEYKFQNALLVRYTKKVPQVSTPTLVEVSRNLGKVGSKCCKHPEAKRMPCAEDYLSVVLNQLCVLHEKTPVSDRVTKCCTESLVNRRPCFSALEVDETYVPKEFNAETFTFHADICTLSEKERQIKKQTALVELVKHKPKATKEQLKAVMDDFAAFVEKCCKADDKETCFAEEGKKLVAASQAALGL
T4 sequence (P08637 other isoform, or with tags, fused parts or gaps): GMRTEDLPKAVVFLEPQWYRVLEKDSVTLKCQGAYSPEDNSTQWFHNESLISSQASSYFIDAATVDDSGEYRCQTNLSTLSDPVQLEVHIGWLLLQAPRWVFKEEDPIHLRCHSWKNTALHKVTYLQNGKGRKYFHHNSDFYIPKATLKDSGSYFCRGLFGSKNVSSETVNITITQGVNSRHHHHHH
Sequence of RNase B (P61823 27-150): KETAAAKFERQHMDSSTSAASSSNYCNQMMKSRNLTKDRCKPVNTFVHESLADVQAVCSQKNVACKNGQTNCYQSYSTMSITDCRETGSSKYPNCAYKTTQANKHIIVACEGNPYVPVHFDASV
Sequence of bovine transferrin (Q29443 20-704 limits assumed): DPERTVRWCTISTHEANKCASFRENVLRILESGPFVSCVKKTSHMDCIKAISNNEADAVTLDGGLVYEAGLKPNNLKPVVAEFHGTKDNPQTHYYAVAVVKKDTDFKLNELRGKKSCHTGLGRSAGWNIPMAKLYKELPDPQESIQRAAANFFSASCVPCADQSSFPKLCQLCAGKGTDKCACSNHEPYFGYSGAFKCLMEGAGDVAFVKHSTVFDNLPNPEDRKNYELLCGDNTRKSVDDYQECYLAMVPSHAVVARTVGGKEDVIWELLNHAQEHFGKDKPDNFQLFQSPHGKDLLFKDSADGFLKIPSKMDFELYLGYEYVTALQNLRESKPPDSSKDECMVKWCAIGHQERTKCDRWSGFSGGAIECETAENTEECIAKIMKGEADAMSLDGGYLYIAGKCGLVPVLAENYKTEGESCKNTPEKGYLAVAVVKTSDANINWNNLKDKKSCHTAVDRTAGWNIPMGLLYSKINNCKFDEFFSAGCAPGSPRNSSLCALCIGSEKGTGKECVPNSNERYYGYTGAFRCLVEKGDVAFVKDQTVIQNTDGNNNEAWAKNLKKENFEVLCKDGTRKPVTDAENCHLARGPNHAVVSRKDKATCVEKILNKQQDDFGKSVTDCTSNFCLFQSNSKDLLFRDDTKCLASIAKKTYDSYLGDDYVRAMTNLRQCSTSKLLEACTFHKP
Sequence of Ovalbumin (P01012 2-386): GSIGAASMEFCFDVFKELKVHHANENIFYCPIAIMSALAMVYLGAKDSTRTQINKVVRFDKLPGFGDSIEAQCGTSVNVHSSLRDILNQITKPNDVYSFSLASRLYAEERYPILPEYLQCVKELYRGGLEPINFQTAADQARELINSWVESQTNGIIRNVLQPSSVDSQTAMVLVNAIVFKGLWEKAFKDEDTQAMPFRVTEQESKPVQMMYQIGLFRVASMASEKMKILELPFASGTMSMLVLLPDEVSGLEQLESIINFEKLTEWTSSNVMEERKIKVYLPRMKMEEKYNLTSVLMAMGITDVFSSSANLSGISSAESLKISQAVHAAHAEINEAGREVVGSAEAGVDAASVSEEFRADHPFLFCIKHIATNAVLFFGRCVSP

Binder | binding result (rat transferrin) | binding result (cynomolgus transferrin) | binding result (Human FcγRI (1-279)_HIS6) | binding result [1] | binding result [2] | binding result [3] | binding result [4] | binding result [5] | binding ratio (signal / signal of MOR03207) (Protein A) | binding ratio (signal / signal of MOR03207) (Fc (h)) | binding ratio (signal / signal of MOR03207) (Trypsin inhibitor) | binding ratio (signal / signal of MOR03207) (Lectin) | binding ratio (signal / signal of MOR03207) (Ovalbumin) | binding ratio (signal / signal of MOR03207) (Trypsinogen) | binding ratio (signal / signal of MOR03207) (RNase B) | binding ratio (signal / signal of MOR03207) (Serum albumin (h)) | binding ratio (signal / signal of MOR03207) (Antitrypsin) | binding ratio (signal / signal of MOR03207) [6] | binding ratio (signal / signal of MOR03207) [7] | binding ratio (signal / signal of MOR03207) (bovine transferrin) | other results
B1 | no binding | no binding | no binding | no binding | binds | no binding | no binding | no binding | 1 | 3 | 7 | 2 | 4 | 2 | 2 | 2 | 2 | 2 | 2 | 9 | binding ratio (signal / signal of MOR03207) [8]: 49; binding result (Human C1q): no binding (tested: 500 nM (highest C1q concentration)); Kd [9]: 29 nM; koff [9]: 0.00127 s⁻¹; kon [9]: 43300 M⁻¹ s⁻¹; Kd [10]: 0.29 nM; koff [10]: 0.000111 s⁻¹; kon [10]: 378000 M⁻¹ s⁻¹
B2 | no binding | no binding | no binding | no binding | binds | no binding | no binding | no binding | 1 | 2 | 5 | 2 | 2 | 2 | 2 | 2 | 2 | 2 | 2 | 19 | binding ratio (signal / signal of MOR03207) [8]: 84; binding result (Human C1q): no binding (tested: 500 nM (highest C1q concentration)); Kd [9]: 36 nM; koff [9]: 0.00179 s⁻¹; kon [9]: 50100 M⁻¹ s⁻¹; Kd [10]: 0.02 nM; koff [10]: 9.99e-06 s⁻¹; kon [10]: 476000 M⁻¹ s⁻¹
